Measured values as given in article doi:10.1101/2023.11.02.23297943 (medRxiv, 2023).

Target: the molecule itself
Assay: cross-linking

Protein | binding result | percent of dimers formed, compared to wild-type | percent of tetramers formed, compared to wild-type | percent of trimers formed, compared to wild-type
mitochondrial single-stranded DNA-binding protein 1 (SSBP1), wild-type recombinant protein (natural protein, human, UniProt Q04837 17-148, looked up) ESETTTSLVLERSLNRVHLLGRVGQDPVLRQVEGKNPVTIFSLATNEMWRSGDSEVYQLGDVSQKTTWHRISVFRPGLRDVAYQYVKKGSRIYLEGKIDYGEYMDKNNVRRQATTIIADNIIFLSDQTKEKE | binds | – | – | –
SSBP1 p.Arg91Gln mutant, recombinant protein (natural protein, human, UniProt Q04837 17-148, looked up) ESETTTSLVLERSLNRVHLLGRVGQDPVLRQVEGKNPVTIFSLATNEMWRSGDSEVYQLGDVSQKTTWHRISVFQPGLRDVAYQYVKKGSRIYLEGKIDYGEYMDKNNVRRQATTIIADNIIFLSDQTKEKE | – | 37.4 % of wild-type | 20.5 % of wild-type | 12.7 % of wild-type
